The source of these data is US20250152663A1, “COMPOSITION FOR PREVENTION OR TREATMENT OF DRY EYE DISEASE COMPRISING HAPLN1” (HAPLNSCIENCE INC., priority 2021, published 2025).

Test [1] has as its system goblet cells. As to the kind of experiment: Goblet cells (PAS staining), rabbit dry eye model. It counts as in vivo, New Zealand white rabbits. The procedure: (§1) Eyes of the rabbits including conjunctiva were enucleated, fixed with a specific fixing solution to be embedded into paraffin, and microsectioned, followed by staining and analysis according to the purpose. In this regard, the eyeballs were stained by hematoxylin & eosin (H & E) staining and detachment of corneal epithelial tissue was analyzed. After PAS staining, distribution of goblet cells in the conjunctiva was measured. In addition, after conjunctiva epithelium indentation (impression cytology), PAS staining was performed and distribution of goblet cells was measured.
After 15 days of eye examination, on the 1st day after 16 days of drug treatment, eyes were enucleated, subjected to histopathological analysis, and paraffin blocked. Tissue was stained in a section slide by PAS staining (FIG. 17A). The number of goblet cells in a range of 200 μm^2 was measured and quantified (FIG. 17b).

Test [2] deals with CD45 in lacrimal glands. As to the kind of experiment: CD45 immunofluorescence in lacrimal gland, mouse dry eye model. The format is in vivo, C57BL/6. The following applies: after 16 days of drug treatment. The procedure: In this example, expression of CD45 was identified in lacrimal glands in order to identify in vivo anti-inflammatory effect of the HAPLN1 protein-containing composition of the present disclosure. That is, on the 2nd day after 16 days of drug treatment, eyes were enucleated and paraffin blocked. IHC-IF was performed on a section slide, and expression (green) of CD45 was identified by using an Anti-CD45 antibody. FIG. 12B is a graph illustrating quantified expression levels of FIG. 12A.

In test [3] the test system is corneal epithelial cells. Put plainly: Detached corneal epithelial cells (H & E staining), rabbit dry eye model. The format is in vivo, New Zealand white rabbits. The procedure:
as §1
After 15 days of eye examination, on the 1st day after 16 days of drug treatment, eyes were enucleated, subjected to histopathological analysis, and paraffin blocked. Tissue was stained in a section slide by H & E staining (FIG. 16A). The number of corneal epithelial cells detached in a range of 200 μm^2 was measured and quantified (FIG. 16B).

In test [4] the test system is MUC4 mRNA in human corneal epithelial cells. As to the kind of experiment: RT-qPCR of mucin mRNA (MUC4) under high osmotic pressure. It counts as cell-based. To be noted: HCEC, 450 mOsM, 10 to 200 ng/ml, particularly 50 to 200 ng/ml, 24 hours; compared to the untreated group. The procedure: First, the human corneal epithelial cells (HCECs, 5th passage) were seeded onto 6 wells at a density of […]. After 24 hours, the HCECs were pre-treated with a medium with different osmotic pressures (314 and 450 mOsM). After 48 hours of incubation, the cells were treated with the composition of the present disclosure having different concentrations of rhHAPLN1 (0, 5, 10, 20, 50, 100, and 200 ng/ml) and Cyclosporine A (0.1 μM), as a control drug, for 24 hours. Then, the cells were washed and sampled to perform RT-qPCR (FIG. 5A).
Total mRNA was purified from the HCECs by using a Qiagen kit. A cDNA was synthesized by using the iScript cDNA synthesis kit. Subsequently, RT-qPCR was performed and result data was expressed as relative expression levels (fold) (FIGS. 5B to 5C).

Test [5] deals with rabbit dry eye model. As to the kind of experiment: Corneal fluorescein score, 0.1% benzalkonium chloride-induced dry eye disease model. The format is in vivo, New Zealand white rabbits. The procedure:
Corneal fluorescein score assay and tear volume assay were respectively performed on eyeballs of rabbits treated with the compositions of Preparation Examples 1, 2, and 3 prepared in Example 7 above by using a 0.1% benzalkonium chloride (BAC)-induced dry eye disease (DED) model.
One drop (0.05 ml) of 0.1% benzalkonium chloride (BAC) was administered to both eyes of rabbits twice a day (9:00 and 17:00) for 14 days, and then induction of dry eye was identified by examination of eyes, and the rabbits were classified into groups.
The test substance was dropped into the groups of the rabbit model twice a day (8:30 and 16:30) (Day 15 to 30 (total of 16 days)).
Anesthesia was induced by intramuscular injection of Xylazine and Ketamine, and then one drop of Alcaine Eye Drop was administered and tear and the eye drop remaining therein were removed by using Weck-cel cellulose spear. After putting STT paper on the lower eyelid, a length of a wet region for 5 minutes was measured (STT-2). In addition, stability of the tear film was tested by measuring tear film break up time (TFBUT, measurement of time taken for the tear film to break down). Furthermore, conditions of the cornea and fluorescent staining were identified by a slit test.

Test [6] concerns human corneal epithelial cells. As to the kind of experiment: CCK-8 cell viability under high osmotic pressure (dry eye cell model). It counts as cell-based. The following applies: HCEC, 450 mOsM. The method, then: In most dry eye diseases, tear decreases in the aqueous layer in an eyeball due to lacrimal hyposecretion or hyperevaporation of tear. In this case, osmotic pressure increases because water decreases while concentrations of proteins, lipids, carbohydrates, etc. contained in tear are constantly maintained. Based on this principle, in cellular level studies, NaCl is added to a cell culture medium to control the osmotic pressure, establish a dry eye disease model, and evaluate efficacy of a drug. Thus, in the present embodiment, by using a case with an osmotic pressure of 314 mOsM as a normal control and a case with a relatively high osmotic pressure of 450 mOsM as a dry eye disease model, effects of HAPLN1 protein on the relief of dry eye disease in human corneal epithelial cells under the high osmotic pressure conditions were verified. This is related to cell viability of human corneal epithelial cells.
In this experiments, a cell counting kit-8 (CCK-8), which allows a sensitive colorimetric assay used to measure cell viability and cytotoxicity, was used. That is, addition of WST-8, which is a highly water-soluble tetrazolium salt, to cells […] to produce an orange-colored formazan dye in the cells. Because the amount of the dye is related to the number of viable cells, a larger amount of the dye indicates more viable cells. […]

Entries after “also recorded” stand apart in the source; their conditions may differ.

B1: hyaluronan and proteoglycan link protein 1 (HAPLN1) (protein, listed as Homo sapiens)
chain: MKSLLLLVLISICWADHLSDNYTLDHDRAIHIQAENGPHLLVEAEQAKVFSHRGGNVTLPCKFYRDPTAFGSGIHKIRIKWTKLTSDYLKEVDVFVSMGYHKKTYGGYQGRVFLKGGSDSDASLVITDLTLEDYGRYKCEVIEGLEDDTVVVALDLQGVVFPYFPRLGRYNLNFHEAQQACLDQDAVIASFDQLYDAWRGGLDWCNAGWLSDGSVQYPITKPREPCGGQNTVPGVRNYGFWDKDKSRYDVFCFTSNFNGRFYYLIHPTKLTYDEAVQACLNDGAQIAKVGQIFAAWKILGYDRCDAGWLADGSVRYPISRPRRRCSPTEAAVRFVGFPDKKHKLYGVYCFRAYN
Take B1: the “number of goblet cells compared to the dry eye disease model” value in test [1] (after 16 days of drug treatment, in proportion to the concentration) was “significantly increased”. The “number of goblet cells compared to Restasis” value in test [1] (high concentration (50 μg/ml)) was “far more increased”. Further, in test [2], the “expression level of CD45 compared with Cyclosporine A” value is recorded as “reduced the expression level of CD45 more than Cyclosporine A” and the “expression of CD45 in lacrimal glands” value is reported as “decreased”. The “number of detached corneal epithelial cells” value in test [3] (after 16 days of drug treatment, concentration dependent) is listed as “decreased”. Also, in test [3] (high concentration (50 μg/ml)), the “degree of detachment of corneal epithelial cells” value is given as “lowest”. In addition, in test [4], the “expression level of MUC4 (FIG. 5B)” value is listed as “significantly increased”. Besides, in test [5] (after 10 days), the “reduction of CFS level compared with Restasis” value is given as “more than by Restasis”. Further, in test [5] (eye drop 0.5, 5, 50 μg/ml b.i.d., regardless of the concentration), the CFS level result was “consistently decreased”. Besides, in test [6] (5 to 100 ng/ml, incubated 24 hours or 48 hours, compared with normal cell group (314 mOsM)), the “cell viability, CCK-8 absorbances (450 nm)” value is “not less than or similar to that of a normal cell group; also recorded: increased”. In addition, the “cell viability (CCK-8) compared with control drug Cyclosporin A” value in test [6] (regardless of concentration, vs 0.1 to 0.5 μM Cyclosporin A) is “higher than 0.1 to 0.5 μM of Cyclosporin A”.
